Data from article PMC11321042, “An invariant C-terminal tryptophan in McdB mediates its interaction and positioning function with carboxysomes” (Molecular Biology of the Cell, 2024).

Biological target: the molecule itself
Test: SEC-MALS; 50 µl at 1.5 mg/ml on a Shodex PROTEIN KW-804 column, 0.4 ml/min, 150 mM KCl, 20 mM Tris-HCl pH 8.2

| Protein | stoichiometry N |
| --- | --- |
| Maintenance of carboxysome distribution protein B (McdB) from Synechococcus elongatus PCC 7942, wild type (natural protein, UniProt Q8GJM6 1-152, looked up, McdB of Synechococcus elongatus PCC 7942; also called Se McdB; β-McdB; source: E. coli BL21-AI, purified (HisTrap, Ulp1 cleavage, SEC); not shown: His-SUMO, N-terminal, cleaved) MTDAFDRLKKRSRTPIAREGSLTTGPELSDRPLQLLPREFETFCDRYAVHAGDVIEAALDLVLLDPDLQQRLLQRLRQGNGSDRVWLGTACPRSWQQQLQQQAQDQGLSEADLLQEAIAQRLDLVLGQTTLREEVTLLRQELDQLKRKLHGW | 6 |
| Se McdB[∆W152] (natural protein, Synechococcus elongatus PCC 7942, UniProt Q8GJM6 1-152, looked up, McdB of Synechococcus elongatus PCC 7942 with the final C-terminal tryptophan W152 deleted; Parent is m1; source: E. coli BL21-AI, purified (HisTrap, Ulp1 cleavage, SEC); not shown: His-SUMO, N-terminal, cleaved) MTDAFDRLKKRSRTPIAREGSLTTGPELSDRPLQLLPREFETFCDRYAVHAGDVIEAALDLVLLDPDLQQRLLQRLRQGNGSDRVWLGTACPRSWQQQLQQQAQDQGLSEADLLQEAIAQRLDLVLGQTTLREEVTLLRQELDQLKRKLHG | 6 |
